Paper PMC6218445, “Pyruvate kinase M2 regulates homologous recombination-mediated DNA double-strand break repair” (Cell Research, 2018)

Target: T1, pyruvate kinase M2 (human (endogenous in U87), UniProt P14618 1-531)
T1 construct: pyruvate kinase M2 (PKM2), endogenous in the human glioblastoma cell line U87; In irradiated cells part of the nuclear PKM2 is phosphorylated at T328 by ATM; The lysates hold a mixture; also called PKM2; source: endogenous, U87 lysate
Experiment: not stated; association of PKM2 and CtIP after irradiation, with the ATM inhibitor KU55933 against without; legend of Fig. S7a not shown
Conditions: partners not purified

T1 sequence (P14618 whole entry): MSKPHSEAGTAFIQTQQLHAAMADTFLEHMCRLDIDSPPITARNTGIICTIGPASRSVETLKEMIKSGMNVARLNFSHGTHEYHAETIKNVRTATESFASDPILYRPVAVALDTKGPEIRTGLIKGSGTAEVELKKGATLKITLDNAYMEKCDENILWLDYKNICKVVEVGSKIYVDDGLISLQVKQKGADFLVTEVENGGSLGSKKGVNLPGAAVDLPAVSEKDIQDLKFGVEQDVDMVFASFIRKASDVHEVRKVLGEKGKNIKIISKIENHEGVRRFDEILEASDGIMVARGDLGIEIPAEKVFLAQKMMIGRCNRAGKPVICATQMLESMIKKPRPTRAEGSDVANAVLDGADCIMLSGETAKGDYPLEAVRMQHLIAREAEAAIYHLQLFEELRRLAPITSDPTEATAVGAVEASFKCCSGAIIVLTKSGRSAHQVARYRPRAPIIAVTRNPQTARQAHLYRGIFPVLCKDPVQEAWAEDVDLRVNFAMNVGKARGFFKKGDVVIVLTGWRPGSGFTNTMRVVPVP

fold reduction of the association by KU55933 after irradiation: > 2.5 fold
B1: CtBP-interacting protein (natural protein, human (endogenous in U87), UniProt Q99708 1-897, looked up)
chain: MNISGSSCGSPNSADTSSDFKDLWTKLKECHDREVQGLQVKVTKLKQERILDAQRLEEFFTKNQQLREQQKVLHETIKVLEDRLRAGLCDRCAVTEEHMRKKQQEFENIRQQNLKLITELMNERNTLQEENKKLSEQLQQKIENDQQHQAAELECEEDVIPDSPITAFSFSGVNRLRRKENPHVRYIEQTHTKLEHSVCANEMRKVSKSSTHPQHNPNENEILVADTYDQSQSPMAKAHGTSSYTPDKSSFNLATVVAETLGLGVQEESETQGPMSPLGDELYHCLEGNHKKQPFEESTRNTEDSLRFSDSTSKTPPQEELPTRVSSPVFGATSSIKSGLDLNTSLSPSLLQPGKKKHLKTLPFSNTCISRLEKTRSKSEDSALFTHHSLGSEVNKIIIQSSNKQILINKNISESLGEQNRTEYGKDSNTDKHLEPLKSLGGRTSKRKKTEEESEHEVSCPQASFDKENAFPFPMDNQFSMNGDCVMDKPLDLSDRFSAIQRQEKSQGSETSKNKFRQVTLYEALKTIPKGFSSSRKASDGNCTLPKDSPGEPCSQECIILQPLNKCSPDNKPSLQIKEENAVFKIPLRPRESLETENVLDDIKSAGSHEPIKIQTRSDHGGCELASVLQLNPCRTGKIKSLQNNQDVSFENIQWSIDPGADLSQYKMDVTVIDTKDGSQSKLGGETVDMDCTLVSETVLLKMKKQEQKGEKSSNEERKMNDSLEDMFDRTTHEEYESCLADSFSQAADEEEELSTATKKLHTHGDKQDKVKQKAFVEPYFKGDERETSLQNFPHIEVVRKKEERRKLLGHTCKECEIYYADMPAEEREKKLASCSRHRFRYIPPNTPENFWEVGFPSTQTCMERGYIKEDLDPCPRPKRRQPYNAIFSPKGKEQKT
notes: also called CtIP; source: endogenous, U87 lysate
